Laboratory results: patent US20090253622A1, “USE OF TLR3 AGONISTS FOR THE TREATMENT OF NEURODEGENERATIVE DISORDERS” (Nederlandse Organisatie voor toegepast - …, priority 2006, published 2009)
Entries after “also recorded” stand apart in the source; their conditions may differ.

Assays:
[1] = Circular dichroism spectroscopy, helical content; assay type: physicochemical; settings: dissolved in 50% TFE in PBS, without dialysis
Description: Purified recombinant stathmin was exposed to two different conditions that differentially affect the extent of helix formation within the protein chain. One part of the protein preparation was exposed to 5% trifluoroacetic acid (TFA) in water for 1 h at 37° C., strongly acidic conditions that tend to disrupt an alpha helix. […] […] Next, the samples were analyzed by […] circular dichroism spectroscopy that allows calculation of helical content on the basis of elipticity in the absorption of circularly polarized light. In both cases, another part of the dialyzed sample was tested in parallel for induction of TLR3-mediated release of CXCL8 (IL-8) in human astrocytes as described elsewhere in this application.

[2] = tested on: human adult astrocytes; experiment: cDNA array profiling of cytokine, chemokine and growth factor genes in human adult astrocytes; assay type: cell-based
Description: Adult human astrocytes from post-mortem subcortical white matter samples were isolated and cultured as previously described (Bsibsi et al., J Neuropath Exp Neurol 61:1013-1021 [2002]). […] When indicated astrocytes were stimulated with 50 μg/mL poly I:C (Amersham Pharmacia Biotech, Piscataway, N.J.) or 200 ng/mL LPS (Sigma-Aldrich, Steinheim, Germany) to activate TLR3 and TLR4, respectively. […] It should be noted that contaminants in the commercial LPS preparation could possibly lead to some level of TLR2 activation in addition to TLR4 by the LPS preparation used but not of TLR3. When stimulated with cytokines, astrocytes were supplied with TNF-α, IFN-γ, IL-1β (each at 500 U/mL), IL-4 (at 250 U/mL), IL-6 (at 200 U/mL), IL-12 (at 50 ng/mL), IL-10 (at 20 ng/mL) and TGF-β (at 12.5 ng/mL) (PeproTech, Rocky Hill, N.Y.). […] Endothelial cells (UVEC) were isolated from umbillical cords and cultured on gelatin-coated dishes in M199 supplemented with 20 nM HEPES, 10% human serum, 10% heat-inactivated NBCS, 150 mg/mL ECGF, 5 U/mL heparin, 100 IU/mL penicillin and […] streptomycin.
Analysis of the mRNA profile of astrocytes was performed by hybrid selection of ^32P-labeled cDNA on Clontech human cytokine/chemokine Atlas® arrays as previous described (Meeuwsen et al., Glia 43:243-253 [2003]). Hybridization signals for each of the 268 cytokine, chemokine and growth factor (receptor) genes were calculated as the mean of duplicate measurements, corrected for background intensity and quantified using software provided by the manufacturer. Relative expression was calculated by dividing these hybridization signals by the mean signal for all nine housekeeping reference genes on the corresponding array.
Gene profiling was performed using astrocytes from four different control donors.
Astrocytes were isolated from post mortem human brain tissue samples and cultured under conditions as described elsewhere in this application. One part of the culture was stimulated with 50 μg/ml stathmin, the second with 50 μg/ml poly I:C and a third was left untreated to served as a reference control. Following another 48 h RNA was isolated from each culture and ^32P-labeled cDNA was prepared by reverse transcription. Subsequent hybrid selection of these ^32P-labeled cDNA samples was performed on Clontech Atlas® arrays containing selective probes for 268 cytokines, chemokines and growth factors, and various receptors for these mediators. All hybridization signals were calculated as the mean of duplicate measurements, corrected for background intensity and quantified using software provided by the manufacturer. Relative signal strength was next calculated by dividing these averaged hybridization signals by the mean signal for all nine housekeeping reference genes that were also present on each array as a reference.

[3] = tested on: immature human plasmacytoid dendritic cells (pre-DC); experiment: Antibody-array profiling of 40 cytokines and chemokines in human pre-DC supernatants; assay type: cell-based; settings: 50 μg/ml, 48 h
Description: To examine the effects of stathmin on the maturation and cytokine production of immature human plasmacytoid dendritic cells (pre-DC), such pre-DC were generated from samples of peripheral blood mononuclear cells by maturation of purified CD14^+ monocytes using GM-CSF and IL-4. The cells were subsequently exposed to 50 μg/ml stathmin and after 48 h, culture supernatants were collected and the accumulation of 40 different cytokines ands chemokines was evaluated by antibody-array profiling using a commercially available antibody array.

[4] = purified recombinant protein in buffers similar to culture media; Steinmetz and colleagues; cited from earlier work

B1: stathmin: cytosolic phosphoprotein of 149 amino acids (SEQ ID NO: 1); purified recombinant human stathmin from a commercial source (protein)
chain: MASSDIQVKELEKRASGQAFELILSPRSKESVPEFPLSPPKKKDFSLEEIQKKLEAAEERRKSHEAEVLKQLAEKREHEKEVLQKAIEENNNFSKMAEEKITHKMEANKENREAQMAAKLERLREKDKHIEEVRKNKESKDPADETEAD
modifications: Human; (44)..(138) Stathmin-like alpha helix domain
notes: purified recombinant human stathmin from a commercial source
- helical content [1]: 98%
- change in expression of genes encoding immune mediators and growth factors ([2]; 50 μg/ml, 48 h): comprehensive and marked change in expression
- stathmin-induced mediators ([2]; astrocytes (TLR3 on the cell surface), qualitative summary): CNTF, LIF; also recorded: TSG-6, IL-9, IL10, IL-11, IL-5; also recorded: VEGF, VEGF-C, CXCL8; also recorded: CCL2, CCL3, CXCL9
- reduction of levels of the p70 subunit of IL-12 [3]: two-fold
- CXCL8 induction ratio ([3]; vs untreated control): > 1.5
- IL-10 induction ratio ([3]; vs untreated control): > 1.5
- MCP-1 induction ratio ([3]; vs untreated control): > 1.5
- p40 subunit of IL-12 induction ratio ([3]; vs untreated control): > 1.5
- fraction structurally ordered into alpha helix [4]: 40-60%
